Entries after “also recorded” stand apart in the source; their conditions may differ.

Assay [1] concerns (HB9-GFP)-mouse embryonic stem cells. In words: Motor neuron differentiation of (HB9-GFP)-mouse embryonic stem cell embryoid bodies, GFP by fluorescent or confocal microscopy. The note with it: one day 100 nM RA and 50 ng/ml Sonic hedgehog protein, then three days with agent, fluorescent microscopy. Type of assay: cell-based. As for the experimental part:
Briefly, mouse embryonic stem cells expressing GFP under the control of the HB9 promoter were cultured to confluence, trypsinized, and allowed to reaggregate to form embryoid bodies. The embryoid bodies were treated for one day with 100 nM RA and 50 ng/ml Sonic hedgehog protein. Subsequently, the embryoid bodies were cultured for three days with a previously identified hedgehog, small molecule agonist. Cultured embryoid bodies were analyzed by fluorescent and bright filed microscopy (FIG. 2).
As outlined above, the stem cell based methods of the invention can be used in many ways including, but not limited to, as a primary screen to identify agents that promote differentiation without regard to the mechanism of action; as a primary screen to identify agents that promote differentiation and that may act by agonizing or antagonizing a particular signaling pathway; or as a secondary screen to confirm that an agent that agonizes or antagonizes a particular signaling pathway also functions to promote differentiation along a particular lineage. […] Briefly, several small molecules were previously identified in a screen to identify agonists of the hedgehog signaling pathway. […] Mouse embryonic stem cells expressing GFP under the control of the HB9 promoter were cultured to confluence, trypsinized, and allowed to reaggregate to form embryoid bodies. The embryoid bodies were treated for one day with 100 nM RA and 50 ng/ml Sonic hedgehog protein. Subsequently, the embryoid bodies were cultured for three days with one of three previously identified hedgehog, small molecule agonists. Cultured embryoid bodies were analyzed by fluorescent microscopy for expression of GFP (FIG. 3).
Mouse embryonic stem cells were cultured and treated as described above. Following three days of culture in the presence of the hedgehog agonist, embryoid bodies were analyzed by confocal microscopy to allow analysis of sections throughout the embryoid body. Confocal images were compared to confocal images of embryoid bodies cultured in the absence of hedgehog agonist.
By way of example, known antagonists of BMP signaling include noggin, chordin, follistatin, cerberus, Dan, gremlin, ectodin, sclerostin, and ventroptin. Known antagonists of Wnt signaling include sFRP, WIF, dkk, and Cerberus. Briefly, mouse embryonic stem cells expressing GFP under the control of the HB9 promoter were cultured to confluence, trypsinized, and allowed to reaggregate to form embryoid bodies. The embryoid bodies were treated for one day with 100 nM RA and 50 ng/ml Sonic hedgehog protein. Subsequently, the embryoid bodies were cultured for three days with one of the following: 98 (a small molecule hedgehog agonist), chordin (a BMP antagonist), noggin (a BMP antagonist), gremlin (a BMP antagonist), Dan (a BMP antagonist), PTN (a neurotrophic factor), sFRP2 (a Wnt antagonist), dkk1 (a Wnt antagonist). Cultured embryoid bodies were analyzed by fluorescent microscopy for expression of GFP (FIG. 9).
Embryoid bodies were differentiated as described above for FIG. 9. […] Note, however, the morphological differences among cells types differentiated using each agent. Embryoid bodies treated with a Wnt antagonist were flatter than embryoid bodies treated with a BMP antagonist.

In assay [2] the test system is Mouse embryonic stem cells (embryoid bodies). In words: Combinations of agents promoting motor neuron differentiation from embryoid bodies, HB9 expression. It counts as cell-based. The note with it: agent plus the same sub-threshold concentration of small molecule hedgehog agonist (Ag1.3). As for the experimental part:
BMP antagonists and Wnt antagonists synergized with hedgehog agonists to promote motor neuron differentiation from embryoid bodies. Briefly, mouse embryonic stem cells were cultured, as described above.

B1: sFRP2: a Wnt antagonist (protein, UniProt Q96HF1 25-295, looked up)
Secreted frizzled-related …: LFLFGQPDFSYKRSNCKPIPANLQLCHGIEYQNMRLPNLLGHETMKEVLEQAGAWIPLVMKQCHPDTKKFLCSLFAPVCLDDLDETIQPCHSLCVQVKDRCAPVMSAFGFPWPDMLECDRFPQDNDLCIPLASSDHLLPATEEAPKVCEACKNKNDDDNDIMETLCKNDFALKIKVKEITYINRDTKIILETKSKTIYKLNGVSERDLKKSVLWLKDSLQCTCEEMNDINAPYLVMGQKQGGELVITSVKRWQKGQREFKRISRSIRKLQC
For the molecule B1, the “motor neuron differentiation, as measured by expression of the HB9 promoter-driven transgene (GFP)” value (from here on “motor neuron differentiation … (GFP)”) in assay [1] is on record as “differentiated along a motor neuron lineage”; in assay [1] (listed as sFRP) it was “robustly promoted motor neuron differentiation”. Further, in assay [2], the “motor neuron differentiation, as measured by expression of HB9” value (shortened to “motor neuron differentiation … of HB9”) was “promoted motor neuron differentiation”.

B2: dkk1: a Wnt antagonist (protein, UniProt O94907 32-266, looked up)
Dickkopf-related protein 1: TLNSVLNSNAIKNLPPPLGGAAGHPGSAVSAAPGILYPGGNKYQTIDNYQPYPCAEDEECGTDEYCASPTRGGDAGVQICLACRKRRKRCMRHAMCCPGNYCKNGICVSSDQNHFRGEIEETITESFGNDHSTLDGYSRRTTLSSKMYHTKGQEGSVCLRSSDCASGLCCARHFWSKICKPVLKEGQVCTKHRRKGSHGLEIFQRCYCGEGLSCRIQKDHHQASNSSRLHTCQRH
In the case of B2, the “motor neuron differentiation … (GFP)” value in assay [1] is “robustly promoted motor neuron differentiation; also recorded: differentiated along a motor neuron lineage”.

B3: gremlin: a BMP antagonist (protein, UniProt O60565 25-184, looked up)
Gremlin-1: KKKGSQGAIPPPDKAQHNDSEQTQSPQQPGSRNRGRGQGRGTAMPGEEVLESSQEALHVTERKYLKRDWCKTQPLKQTIHEEGCNSRTIINRFCYGQCNSFYIPRHIRKEEGSFQSCSFCKPKKFTTMMVTLNCPELQPPTKKKRVTRVKQCRCISIDLD
For the molecule B3, the “motor neuron differentiation … (GFP)” value in assay [1] is listed as “robustly promoted motor neuron differentiation; also recorded: differentiated along a motor neuron lineage”. For the same molecule, the “motor neuron differentiation … of HB9” value in assay [2] is recorded as “promoted motor neuron differentiation”.

B4: PTN: a neurotrophic factor (protein, UniProt P21246 33-168, looked up)
Pleiotrophin: GKKEKPEKKVKKSDCGEWQWSVCVPTSGDCGLGTREGTRTGAECKQTMKTQRCKIPCNWKKQFGAECKYQFQAWGECDLNTALKTRTGSLKRALHNAECQKTVTISKPCGKLTKPKPQAESKKKKKEGKKQEKMLD
As for B4, the “motor neuron differentiation … (GFP)” value in assay [1] is reported as “robustly promoted motor neuron differentiation”.

B5: noggin: a BMP antagonist (protein, UniProt Q13253 28-232, looked up)
Noggin: QHYLHIRPAPSDNLPLVDLIEHPDPIFDPKEKDLNETLLRSLLGGHYDPGFMATSPPEDRPGGGGGAAGGAEDLAELDQLLRQRPSGAMPSEIKGLEFSEGLAQGKKQRLSKKLRRKLQMWLWSQTFCPVLYAWNDLGSRFWPRYVKVGSCFSKRSCSVPEGMVCKPSKSVHLTVLRWRCQRRGGQRCGWIPIQYPIISECKCSC
Turning to B5, the “motor neuron differentiation … (GFP)” value in assay [1] is listed as “robustly promoted motor neuron differentiation; also recorded: differentiated along a motor neuron lineage”. Moreover, in assay [2], the “motor neuron differentiation … of HB9” value is reported as “promoted motor neuron differentiation”.
